Data as given in patent US20240059784A1 (Eli Lilly, published 2024).

Legend:
[1] = target: T1, human TfR ECD (His-tagged) (human, UniProt P02786 89-760); experiment: SPR (Biacore 8K), 37 C; TfR ECD amine-coupled to CM4 chip, TBP as analyte; multi-cycle kinetics, 2-state fit; n = 3
T1 construct: also called hTfR-ECD-6His; his-tagged hTfR-ECD
Procedure: (§1) Target human and cynomolgous TfR ECD's were immobilized on a CM4 chip (Cytiva P/N 29104989) using standard NHS-EDC amine coupling. The TfR binding proteins were prepared at a final concentration of 0.3, 0.1, 0.033, 0.01, 0.0033, 0.001, 0.00033, 0.0001 μM respectively by dilution of stock solution into running buffer.
(§2) Binding analysis was performed in a multi-cycle kinetics manner. Each analysis cycle consists of (1) injection of the lowest to highest concentration proteins over all Fc at 50 μL/min for 140 seconds followed by return to buffer flow for 400 seconds to monitor dissociation phase; (2) regeneration of chip surfaces with injection of 3M magnesium chloride, for 30 seconds at 100 μL/min over all cells; and (3) equilibration of chip surfaces with a 50 μL (30-sec) injection of HBS-EP+. Data were processed using standard double-referencing and fit to a 2-state binding model using Biacore 8K Evaluation software, to determine the association rate (kₒₙ, M⁻¹s⁻¹ units), dissociation rate (koff, s⁻¹ units), and Rₘₐₓ (RU units). The equilibrium dissociation constant (KD) is calculated from the relationship KD=koff/kₒₙ, and is in molar units.

cynomolgus TfR ECD = target: T2, cynomolgus TfR ECD (cynomolgus); experiment: as above
T2 construct: extracellular domain; amine-coupled in the 37 C assay; also called Cyno TfR; His-tagged cynomolgus TfR ECD
Procedure: as §1, §2

human TfR (cell-bound) = target: T3, human TfR (cell-bound) (human, UniProt P02786 1-760); experiment: flow cytometry on hCMEC-D3 cells (endogenous human TfR), on ice, PE-labeled secondary
T3 construct: Endogenous receptor on hCMEC-D3 cells (stated); also called hTFR; human transferrin receptor on hCMEC-D3 cells
Procedure: (§3) Human endothelial line hCMEC-D3 (EMD Millipore SC066), endogenously expressing human TfR and MDCK cell line (ATCC CCL-34), engineered to express cynomolgus TfR were utilized to evaluate antibody/protein binding to cell-bound TfR. Cells were grown and maintained at submaximal confluence and detached from cultureware using Accutase cell detachment solution, washed, and allocated at 50000 cells per well for assessment of binding. Cells were treated with a viability stain then subsequently incubated with titrated concentrations of TfR binding proteins on ice. Cells were washed and binding of test antibodies or proteins was detected using a PE-labeled secondary reagent. Cells were then washed and read on the same day using a BioRad ZE5 cytometer. Analysis was performed post-acquisition in FlowJo, analyzing fluorescence of single, viable, non-debris events. EC50 values were derived by plotting geometric median PE intensity values across a given sample titration and fitting a sigmoidal (4PL) response curve in GraphPad Prism 8.3.0.

[2] = target: T4, cynomolgus TfR (on MDCK cells) (cynomolgus, UniProt H9EXL1 1-760 (rhesus entry)); experiment: flow cytometry on MDCK cells engineered to express cynomolgus TfR, on ice, PE-labeled secondary
T4 construct: whole, on cells; also called Cyno MDCK
Procedure: as §3

[3] = target: T1, human TfR ECD (His-tagged); experiment: SPR (Biacore 8K), 37 C; TfR ECD amine-coupled to CM4 chip, TBP as analyte; multi-cycle kinetics, 2-state fit; n = 3; conjugated to MAPT siRNA (dsRNA No. 39 in Table 11b)
Procedure: as §1, §2

Row | Kd [1] | Kd (cynomolgus TfR ECD) | EC50 (human TfR (cell-bound)) | EC50 [2] | Kd [3] | Binder
1 | 258 nM | 448 nM | 764 nM | 453 nM | – | TBP14-MAPT siRNA (dsRNA No. 38 in Table 11b) (antibody, MAPT siRNA (dsRNA No. 38) conjugated through a linker at the engineered cysteine (A378C, EU numbering, by the name in Table 6b), Protein-siRNA conjugate of TBP14; also called TBP14-MAPT siRNA conjugate) heavy: EVQLVESGGGLVKPGGSLRLSCVASGFTFSSYSMNWVRQAPGKGLEWVSSISSSSSYIYYADSVKGRFTISRDNAKNSLYLQMNSLRAEDTAVYYCARRHGYSNSDAFDNWGQGTLVTVSSASTKGPSVFPLAPCSRSTSESTAALGCLVKDYFPEPVTVSWNSGALTSGVHTFPAVLQSSGLYSLSSVVTVPSSSLGTKTYTCNVDHKPSNTKVDKRVESKYGPPCPPCPAPEAAGGPSVFLFPPKPKDTLMISRTPEVTCVVVDVSQEDPEVQFNWYVDGVEVHNAKTKPREEQFNSTYRVVSVLTVLHQDWLNGKEYKCKVSNKGLPSSIEKTISKAKGQPREPQVSTLPPSQEEMTKNQVSLMCLVYGFYPSDICVEWESNGQPENNYKTTPPVLDSDGSFFLYSVLTVDKSRWQEGNVFSCSVMHEALHNHYTQKSLSLSLG light: DIQMTQSPSAMSASVGDRVTITCRASQGISHYLVWFQQKPGKVPKRLIYAASSLQSGVPSRFSGSGSGTEFTLTISSLQPEDFATYYCLQHNSYPWTFGQGTKVEIKRTVAAPSVFIFPPSDEQLKSGTASVVCLLNNFYPREAKVQWKVDNALQSGNSQESVTEQDSKDSTYSLSSTLTLSKADYEKHKVYACEVTHQGLSSPVTKSFNRGEC ESKYGPPCPPCPAPEAAGGPSVFLFPPKPKDTLMISRTPEVTCVVVDVSQEDPEVQFNWYVDGVEVHNAKTKPREEQFNSTYRVVSVLTVLHQDWLNGKEYKCKVSNKGLPSSIEKTISKAKGQPREPQVYTLPPSQGDMTKNQVQLTCLVKGFYPSDICVEWESNGQPENNYKTTPPVLDSDGSFFLASRLTVDKSRWQEGNVFSCSVMHEALHNHYTQKSLSLSLG
2 | – | 199 nM | 75.6 nM | 57.1 nM | 213 nM | TBP15-MAPT siRNA (dsRNA No. 39 in Table 11b) (antibody, MAPT siRNA (dsRNA No. 39) conjugated through a linker at the engineered cysteine (S124C, EU numbering, by the name in Table 6b), Protein-siRNA conjugate of TBP15) heavy: EVQLVESGGGLVKPGGSLRLSCVASGFTFSSYSMNWVRQAPGKGLEWVSSISSSSSYIYYADSVKGRFTISRDNAKNSLYLQMNSLRAEDTAVYYCARRHGYSNSDAFDNWGQGTLVTVSSASTKGPCVFPLAPCSRSTSESTAALGCLVKDYFPEPVTVSWNSGALTSGVHTFPAVLQSSGLYSLSSVVTVPSSSLGTKTYTCNVDHKPSNTKVDKRVESKYGPPCPPCPAPEAAGGPSVFLFPPKPKDTLMISRTPEVTCVVVDVSQEDPEVQFNWYVDGVEVHNAKTKPREEQFNSTYRVVSVLTVLHQDWLNGKEYKCKVSNKGLPSSIEKTISKAKGQPREPQVSTLPPSQEEMTKNQVSLMCLVYGFYPSDIAVEWESNGQPENNYKTTPPVLDSDGSFFLYSVLTVDKSRWQEGNVFSCSVMHEALHNHYTQKSLSLSLG light: DIQMTQSPSAMSASVGDRVTITCRASQGISHYLVWFQQKPGKVPKRLIYAASSLQSGVPSRFSGSGSGTEFTLTISSLQPEDFATYYCLQHNSYPWTFGQGTKVEIKRTVAAPSVFIFPPSDEQLKSGTASVVCLLNNFYPREAKVQWKVDNALQSGNSQESVTEQDSKDSTYSLSSTLTLSKADYEKHKVYACEVTHQGLSSPVTKSFNRGEC ESKYGPPCPPCPAPEAAGGPSVFLFPPKPKDTLMISRTPEVTCVVVDVSQEDPEVQFNWYVDGVEVHNAKTKPREEQFNSTYRVVSVLTVLHQDWLNGKEYKCKVSNKGLPSSIEKTISKAKGQPREPQVYTLPPSQGDMTKNQVQLTCLVKGFYPSDIAVEWESNGQPENNYKTTPPVLDSDGSFFLASRLTVDKSRWQEGNVFSCSVMHEALHNHYTQKSLSLSLG
